Results: publication PMC6536502, “Structural insights into DNA recognition by AimR of the arbitrium communication system in the SPbeta phage” (Cell Discovery, 2019)
Where a chain is given by its changes, count along the chain named.

Key:
Experiment in all cases: EMSA; EMSA: 25 mM Tris-HCl pH 8.0, 150 mM NaCl, 5 mM MgCl2, 5 mM DTT, 0.1 mg/ml BSA, 10% glycerol, 50 ug/ml salmon sperm DNA, 4 C, 15 min; smFRET: 20 mM phosphate pH
Conditions in all cases: protein: recombinant; tags: 6xHis removed by drICE; chain copies: 2
[1] = target: T1, AimR T78D (Bacillus phage SPbeta, UniProt O64094 1-386, T78D)
T1 sequence: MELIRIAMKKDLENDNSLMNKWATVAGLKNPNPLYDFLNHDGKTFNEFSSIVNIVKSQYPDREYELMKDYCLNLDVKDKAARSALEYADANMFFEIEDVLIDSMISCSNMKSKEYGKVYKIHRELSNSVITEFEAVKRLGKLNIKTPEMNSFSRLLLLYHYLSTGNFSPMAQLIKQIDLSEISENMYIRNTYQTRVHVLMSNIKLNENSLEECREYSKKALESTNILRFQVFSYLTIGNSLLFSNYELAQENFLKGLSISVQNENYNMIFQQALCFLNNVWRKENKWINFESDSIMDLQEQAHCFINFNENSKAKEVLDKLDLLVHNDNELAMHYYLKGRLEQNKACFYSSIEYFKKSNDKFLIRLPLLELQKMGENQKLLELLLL

[2] = target: T2, AimR K77D (Bacillus phage SPbeta, UniProt O64094 1-386, K77D)
T2 sequence: T1 sequence with K77D, D78T

[3] = target: T3, AimR N30A (Bacillus phage SPbeta, UniProt O64094 1-386, N30A)
T3 sequence: T1 sequence with N30A, D78T

[4] = target: T4, AimR N46D (Bacillus phage SPbeta, UniProt O64094 1-386, N46D)
T4 sequence: T1 sequence with N46D, D78T

[5] = target: T5, AimR K120D (Bacillus phage SPbeta, UniProt O64094 1-386, K120D)
T5 sequence: T1 sequence with D78T, K120D

Measured: binding result

B1: 31 bp aimX-upstream palindromic DNA (dsDNA)
DNA 1: ACTTAAATATTAGGTTTTAATAACATCTAGT
DNA 2: ACTAGATGTTATTAAAACCTAATATTTAAGT
binds: all assays above
